According to article PMC4824110:

Molecular target: T1, Rrp41 D182A (catalytically inactive);Rrp42 (Sulfolobus solfataricus;Sulfolobus …, UniProt Q9UXC2;Q9UXC0 ;, D182A|)
T1 sequence 1: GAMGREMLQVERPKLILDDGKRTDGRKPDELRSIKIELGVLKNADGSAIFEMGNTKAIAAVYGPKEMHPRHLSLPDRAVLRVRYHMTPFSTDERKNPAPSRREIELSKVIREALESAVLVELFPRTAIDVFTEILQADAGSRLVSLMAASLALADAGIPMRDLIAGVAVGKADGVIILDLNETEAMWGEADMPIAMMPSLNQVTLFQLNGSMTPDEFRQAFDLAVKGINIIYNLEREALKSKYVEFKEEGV
T1 sequence 2: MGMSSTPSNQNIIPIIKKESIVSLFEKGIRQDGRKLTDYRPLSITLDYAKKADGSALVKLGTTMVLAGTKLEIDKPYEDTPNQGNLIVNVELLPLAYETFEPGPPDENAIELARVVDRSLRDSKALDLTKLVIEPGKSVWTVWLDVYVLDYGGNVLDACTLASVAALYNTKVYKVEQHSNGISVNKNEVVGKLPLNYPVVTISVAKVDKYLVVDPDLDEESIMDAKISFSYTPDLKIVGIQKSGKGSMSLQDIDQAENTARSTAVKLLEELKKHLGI
Test: fluorescence anisotropy

B1: fluorescent 32A (FA RNA) (structured_RNA)
RNA: GCCCCCCCCGAAAGGGGGGGGAAAAAAAAAAAAAAAAAAAAAUAAAAAAAAAAAGCU
modifications: 4-thiouridine at position 43
Kd: 11.7 ± 0.9 nM
